Measurements: paper PMC4114562

Target: rFKBP22 (a recombinant E. coli FKBP22) (Escherichia coli) (UniProt P0A9L3)
Experiment: cross-linking; glutaraldehyde-mediated chemical cross-linking of rFKBP22 (bound/unbound with rapamycin) at 30°–85°C, analysed by SDS-13.5% PAGE

stoichiometry N: 2
Substance: rFKBP22 (a recombinant E. coli FKBP22) (from UniProt P0A9L3 1-206) (enzyme)
